Consider 15 sequences from the supplement of paper PMC12764529.

± gives the half width of the 95% confidence interval.

The nature of series [1]: folding stability dG unfold from chymotrypsin proteolysis; higher = more stable. An outline of the steps: (§1)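 Unfolding free energy was derived, per protease or combined, against a sequence-predicted unfolded-state K50 and a shared folded-state K50, starting from K50 inferred by Bayesian fitting of sequencing counts. Digestion with trypsin and chymotrypsin was carried out on designed mini-proteins under 80 residues without cysteine in a PA-tagged cDNA display construct. Only designs with AlphaFold2 dimer inter-PAE above 15 were kept.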

The nature of series [2]: folding stability dG unfold from trypsin proteolysis; higher = more stable. An outline of the steps:
as §1

Series [3] is described as follows: folding stability dG unfold (combined trypsin and chymotrypsin); higher = more stable. An outline of the steps: as §1

As to “KKVKIEIEVLSKTEEGYVMIAKAKYEEVEKVFEKPYKSKNPIETIKKIVKELFPGPEVTEVKVKYYPKEKKS [r1_399_TrMRF]”, the entries for the “folding stability dG unfold” value in series [1], in series [2] and in series [3] were 1.47 ± 0.11 kcal/mol, 1.11 ± 0.053 kcal/mol and 1.35 ± 0.17 kcal/mol, respectively.
The corresponding values for “KKYKVPVKEALKVAKKLIEKGYEKVKITAYLPNGEKYEIEDIKEFEEELKKKFPGIKPENLTVEIEVIPKES [r1_325_TrMRF]” are 4.49 ± 0.26 kcal/mol, 3.26 ± 0.15 kcal/mol and 4.16 ± 0.37 kcal/mol.
Consider “KTIEIWIPMPMGQAETFVKSLARKLGLPPDDYKVDNVEMQPNKDGWPYVKMEIKLPNNGKEIEIIMPPGWFS [r1_21_TrROS]”, for which the results for the “folding stability dG unfold” value in series [1], in series [2] and in series [3] were 2.6 ± 0.059 kcal/mol, 1.67 ± 0.061 kcal/mol and 2.38 ± 0.23 kcal/mol, respectively.
The corresponding values for “KTIMIWFPFKSWEDVRNLIRDLARELNLPPGRDVDVKVERHPNNGYFRVTVTVSNPNGEKIDITIWFPMWDS [r1_84_TrROS]” are 5.26 ± 0.15 kcal/mol, 3.42 ± 0.1 kcal/mol and 4.91 ± 0.16 kcal/mol.
The corresponding values for “KTVHIPINGMPLDEMLDMARDALREDPDEGKTITIWVPGNPEWLENLGFDKIEPYKDPERPYMRIKFKVPPS [r1_467_TrROS]” are 1.24 ± 0.22 kcal/mol, 0.298 ± 0.17 kcal/mol and 0.816 ± 0.14 kcal/mol.
In the case of “KYELVATLSRPNPETGTVVNVSVYRFEDGSYRVLVDVSTFYRTPDGSLRTSSSRAVFLVPEDVDPRELVESS [r1_243_TrMRF]”, the “folding stability dG unfold” value in series [1] was 3.57 ± 0.081 kcal/mol; in series [2] it was 2.75 ± 0.039 kcal/mol; in series [3], 3.17 ± 0.11 kcal/mol.
As to “LEIIEKLKFPGYKITSVSIQRTNNKVTIVIHFRHPKEYYMISLEIDPPNGGIKITEVHPIKPGESMDDMMNS [r1_383_TrROS]”, the “folding stability dG unfold” value in series [1] is 3.75 ± 0.088 kcal/mol; in series [2] it was 3.09 ± 0.15 kcal/mol; in series [3] it was 3.43 ± 0.33 kcal/mol.
Turning to “MDVKIEPYRDPETGELYYKAVVKFKDGKEKLIEVKVPPNGKPIAKIYDPNGKLLAEKEFDSIEEALKEALAS [r1_478_TrMRF]”, the “folding stability dG unfold” value was 4.24 ± 0.16 kcal/mol in series [1], 3.3 ± 0.35 kcal/mol in series [2] and 3.91 ± 0.37 kcal/mol in series [3].
In the case of “MEAEELATTLAAEALAPLPRPFEIDPENNEVRVPGGGELAELPIRVVLVDEDGEIVEERIVPVRIRAEEPGS [r1_318_TrMRF]”, the “folding stability dG unfold” value is 0.878 ± 0.083 kcal/mol in series [1], -0.362 ± 0.14 kcal/mol in series [2] and 0.542 ± 0.11 kcal/mol in series [3].
As for “MEEEEKKKAETPEIPEEVAREKALEVARELGLEEIEEIEVLSASPEGYVTVRITLPTGGEVEITIPISELES [r1_435_JUSTAS]”, the “folding stability dG unfold” value in series [1] is 2.76 ± 0.08 kcal/mol; in series [2] it was 2.01 ± 0.13 kcal/mol; in series [3], 2.54 ± 0.18 kcal/mol.
For “MEEIKNLPGVKYEPIIEDGEIRLVRFEIPKEVFEKFGKPPVILLVEFSKDGKYRILPESIPKLLELGIIPGS [r1_256_TrMRF]”, the “folding stability dG unfold” value in series [1] came out at 2.52 ± 0.058 kcal/mol; in series [2] it was 1.85 ± 0.023 kcal/mol; in series [3] it was 2.27 ± 0.052 kcal/mol.
“MIIIPNATPEEVKKIILDAAKKGKEIEILIEVDPNLGPKVIKALKDLPYVKKVEPLPDGSIKVYIDKKNLKS [r1_324_TrMRF]”: the entries for the “folding stability dG unfold” value in series [1], in series [2] and in series [3] were 3.24 ± 0.048 kcal/mol, 1.71 ± 0.038 kcal/mol and 2.89 ± 0.093 kcal/mol, respectively.
“MITPEEAIELAKEKAKELLEKAGPGTPSVVVEIKAEDGRVVKVEVDPVKKVINITVYDKGGKKVAEKIIEES [r1_370_JUSTAS]”: the results for the “folding stability dG unfold” value in series [1], in series [2] and in series [3] were 2.67 ± 0.099 kcal/mol, 2.06 ± 0.1 kcal/mol and 2.38 ± 0.11 kcal/mol, respectively.
Consider “MKEITVTLPVPEEVLAAIRAGKPLPLEEIKERVKEEIAKRLGYKNVTIKSVKVEKLPDGSLVIKVKVEFLPS [r1_290_JUSTAS]”, for which the “folding stability dG unfold” value stood at 3.58 ± 0.044 kcal/mol in series [1], 5.45 ± 0.43 kcal/mol in series [2] and 4.15 ± 0.087 kcal/mol in series [3].
The like results for “MKEYLIKIKITITDPNGKKREIEITVLVPAEELTEEQLKELLEKAKELAEKLKEKGYEVKVEVEIIPLEELS [r1_221_TrROS_Hall]” were, in that order, 4.23 ± 0.21 kcal/mol, 3.83 ± 0.27 kcal/mol and 4.25 ± 0.27 kcal/mol.
